Test results: US20220356229A1 (published 2022)

Assays:
[1] = biological target: SARS-CoV-2 Spike (S) protein, wild type, full length (SARS-CoV-2, UniProt P0DTC2 14-1208)
MERS full length Spike = biological target: T1, MERS full length Spike (MERS-CoV, UniProt K9N5Q8 18-1291)
T1 sequence: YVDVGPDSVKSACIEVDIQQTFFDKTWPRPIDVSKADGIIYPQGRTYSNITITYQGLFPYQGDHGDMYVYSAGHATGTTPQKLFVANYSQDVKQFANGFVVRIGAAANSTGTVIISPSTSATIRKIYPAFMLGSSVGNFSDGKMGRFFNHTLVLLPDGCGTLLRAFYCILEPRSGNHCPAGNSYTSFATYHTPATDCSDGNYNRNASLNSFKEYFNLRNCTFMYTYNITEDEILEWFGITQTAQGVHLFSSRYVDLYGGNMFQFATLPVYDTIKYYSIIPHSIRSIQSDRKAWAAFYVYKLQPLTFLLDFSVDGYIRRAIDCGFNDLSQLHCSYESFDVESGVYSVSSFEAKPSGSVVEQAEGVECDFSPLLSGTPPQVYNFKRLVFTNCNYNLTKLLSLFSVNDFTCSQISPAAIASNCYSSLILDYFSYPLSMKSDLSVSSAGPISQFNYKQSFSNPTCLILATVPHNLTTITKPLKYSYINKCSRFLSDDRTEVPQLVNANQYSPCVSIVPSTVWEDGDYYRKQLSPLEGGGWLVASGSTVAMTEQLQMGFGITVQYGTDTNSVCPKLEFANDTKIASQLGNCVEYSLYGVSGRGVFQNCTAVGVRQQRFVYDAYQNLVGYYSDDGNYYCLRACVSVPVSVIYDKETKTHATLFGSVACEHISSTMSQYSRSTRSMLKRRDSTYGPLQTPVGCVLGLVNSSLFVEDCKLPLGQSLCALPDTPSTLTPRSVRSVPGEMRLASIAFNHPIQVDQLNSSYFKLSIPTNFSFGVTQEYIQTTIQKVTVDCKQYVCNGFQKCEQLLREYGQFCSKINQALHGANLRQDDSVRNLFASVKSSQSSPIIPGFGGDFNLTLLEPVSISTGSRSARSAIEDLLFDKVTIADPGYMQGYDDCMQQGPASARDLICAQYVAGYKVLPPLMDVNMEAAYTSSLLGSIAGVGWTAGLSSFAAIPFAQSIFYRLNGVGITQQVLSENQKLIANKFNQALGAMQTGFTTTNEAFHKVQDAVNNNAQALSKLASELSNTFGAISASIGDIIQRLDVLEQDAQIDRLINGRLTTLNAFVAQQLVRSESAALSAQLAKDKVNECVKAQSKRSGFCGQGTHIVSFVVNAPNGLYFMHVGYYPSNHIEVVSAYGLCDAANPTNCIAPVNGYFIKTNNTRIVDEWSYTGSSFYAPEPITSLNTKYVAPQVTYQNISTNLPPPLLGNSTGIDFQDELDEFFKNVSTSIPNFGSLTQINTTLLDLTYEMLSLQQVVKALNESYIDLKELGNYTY

[2] = biological target: SARS-CoV full length Spike (SARS-CoV, UniProt P59594 14-1190)
HKU1 full length Spike = biological target: T2, HKU1 full length Spike (human coronavirus HKU1, UniProt Q5MQD0 13-1276)
T2 sequence: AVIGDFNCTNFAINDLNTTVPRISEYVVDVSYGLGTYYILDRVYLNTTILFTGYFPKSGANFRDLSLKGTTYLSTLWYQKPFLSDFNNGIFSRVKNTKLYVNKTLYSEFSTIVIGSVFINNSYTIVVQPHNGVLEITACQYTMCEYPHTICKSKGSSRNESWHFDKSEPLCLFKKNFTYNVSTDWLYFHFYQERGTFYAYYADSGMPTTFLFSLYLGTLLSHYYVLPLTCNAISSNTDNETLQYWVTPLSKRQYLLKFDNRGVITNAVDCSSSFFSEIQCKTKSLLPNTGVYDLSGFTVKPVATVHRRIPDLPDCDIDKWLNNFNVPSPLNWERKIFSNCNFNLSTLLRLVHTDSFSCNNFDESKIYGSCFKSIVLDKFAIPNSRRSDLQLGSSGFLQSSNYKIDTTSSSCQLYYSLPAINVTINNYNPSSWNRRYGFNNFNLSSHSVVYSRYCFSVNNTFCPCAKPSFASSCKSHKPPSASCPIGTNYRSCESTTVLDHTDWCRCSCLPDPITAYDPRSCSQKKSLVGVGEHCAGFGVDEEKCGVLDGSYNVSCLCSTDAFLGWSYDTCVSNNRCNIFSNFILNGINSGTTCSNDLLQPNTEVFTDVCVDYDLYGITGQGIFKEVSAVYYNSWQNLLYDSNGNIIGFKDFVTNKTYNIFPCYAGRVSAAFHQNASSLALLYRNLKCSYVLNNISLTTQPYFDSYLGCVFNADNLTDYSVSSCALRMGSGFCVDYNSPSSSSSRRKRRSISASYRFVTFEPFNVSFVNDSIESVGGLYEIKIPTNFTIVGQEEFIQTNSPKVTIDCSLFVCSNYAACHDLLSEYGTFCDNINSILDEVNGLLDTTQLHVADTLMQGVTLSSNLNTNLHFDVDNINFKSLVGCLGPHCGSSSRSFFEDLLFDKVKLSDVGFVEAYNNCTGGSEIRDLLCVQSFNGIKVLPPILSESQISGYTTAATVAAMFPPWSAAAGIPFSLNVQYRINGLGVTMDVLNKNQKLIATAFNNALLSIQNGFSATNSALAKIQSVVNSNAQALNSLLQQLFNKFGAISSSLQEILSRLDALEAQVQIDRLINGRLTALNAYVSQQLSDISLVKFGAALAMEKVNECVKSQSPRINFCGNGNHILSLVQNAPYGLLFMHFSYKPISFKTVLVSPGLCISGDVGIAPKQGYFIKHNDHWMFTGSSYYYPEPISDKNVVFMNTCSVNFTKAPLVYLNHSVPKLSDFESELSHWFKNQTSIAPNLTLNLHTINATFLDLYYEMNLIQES

Row | Binder | bead binding signal (fold over isotype) [1] [fold over isotype] | median fluorescence intensity, fold over isotype control (MERS full length Spike) [fold over isotype] | median fluorescence intensity, fold over isotype control [2] [fold over isotype] | median fluorescence intensity, fold over isotype control (HKU1 full length Spike) [fold over isotype]
1 | antibody 266 (antibody, V domains shown) VH: QVQLVESGGGVVQPGRSLRLSCAASGFNLSNYAMHWVRQPSGKGLEWVSLISYDGSIKYYTDSVKGRFTVSGDNSKNTLFLQMNSLRPDDSALYYCVRGGVSGPNSFDMWGQGTTVTVSS VL: DVVMTQSPLSLPVTLGQPASISCRSSQSLVYSDGNTYVNWFQQRPGQSPRRLIYQVSIRASGVPDRFSGSGSGTDFALKISRVEAEDVGVYYCMQGTHWPVTFGQGTKVEIK | 473 |  |  | 
2 | antibody 303 (antibody, V domains shown) VH: QVQLVESGGGVVQPGRSLRLSCAASGFNLSSYAMHWVRQASGKGLEWVSLISYDGSIKYYADSVKGRFTVSGDNSKNMLFLQMNSLRADDSALYYCVRGGVSGPNAFDIWGQGTTVTVSS VL: not shown | 341 |  |  | 
3 | mAb 1444 (antibody, V domains shown) VH: QVQLVQSGAEVKKPGASVKVSCKASGYTFTAYYMHWVRQAPGQGLEWMGWINPNSDDTNYAQKFQGRVTMTRDTSISTAYMELSRLRSDDTAVYYCAREEGVFTIGDRYFDLWGRGTLVSVSS VL: QTVVTQEPSFSVSPGGTVTLTCGLSSGSVSTSYYPSWYQQTPGQAPRTLIYNTNTRSSGVPDRFSGSILGNKAALTITGAQADDESDYYCVLYMGSGIWVFGGGTKLTVLG |  | 0.98 | 1.03 | 0.98
4 | antibody 300 (antibody, V domains shown) VH: QVQLVESGGGVVQPGRSLTLSCAASGFTFSSYAMHWVRQAPGKGLEWVALISYDGNNKYYADSVKGRFTFSRDNSKNTLYLQMNSLRAEDTAVYYCARTNSGSYRTAFDYWGQGTLVTVSS VL: DIQMTQSPSTLSASVGDRVTITCRASQSISIWLAWYQQKPGKAPKLLIYKASSLESGVPSRFSGSGSGTEFTLTISSLQPDDFATYYCQQYNSLWTFGQGTKVEIK | 721 |  |  | 
5 | antibody 288 (antibody, V domains shown) VH: EVQLVESGGGLVQPGGSLRLSCAASGFTFSSYDMHWVRQATGKGLEWVSAIGTAGDTYYPGSVKGRFTISRENAKNSLYLQMNSLRAGDTAVYYCARGANRDYDILTGYYSYYYYGMDVWGQGTTVTVSS VL: not shown | 495 |  |  | 
6 | antibody 301 (antibody, V domains shown) VH: QVQLVQSGAEVKKPGASVKVSCKVSGYTLTELSMHWVRQAPGKGLEWMGGFDPEDGETIYAQKFQGRVTMTEDTSTDTAYMELSSLRSEDTAVYYCATAFCGGDCYPPDALDIWGQGTMVTVSS VL: DIQMTQSPSSVSASVGDRVTITCRASQGISSWLAWYQQKPGKAPKLLIYAASSLQSGVPSRFSGSGSGTDFTLTISSLQPEDFATYYCQQANSFPLTFGGGTKVEIK | 865 |  |  | 
7 | mAb 1538 (antibody, V domains shown) VH: EVQLLESGGGLVQPGGSLRLSCAASGFTFSSYAMSWVRQAPGKGLEWVSGISDSGGSTYYADYVKGRFTISRDNSKDTLYLQMNSLRAEDTAVYYCAKDRGNEYALTHYYYYAMDVWGQGTTVTVSS VL: DIQMTQSPSSLSASVGDRVTITCRASQSISSYLNWYQQKPGKAPKLLIYAAYSLQSGVPSRFSGGGSGTDFTLTISSLQPEDFATYFCQQSYSTPITFGQGTRLEIKR |  | 0.95 | 0.99 | 0.97
8 | antibody 294 (antibody, V domains shown) VH: EVQLVESGGGLVQPGGSLRLSCAASGFTVSSNYMNWVRQAPGKGLEWVSVIYSGGSTYYADSVKGRFTISRDNSKNTLYLQMNSLRAEDTAVYYCARDLGPSGMDVWGQGTTVTVSS VL: DIQMTQSPSSVSASVGDRVTITCRASQGISSWLAWYQQKPGKAPKLLIYAASSLQSGVPSRFSGSGSGTDFTLTISSLQPEDFATYYCQQANSFPLFGGGTKVEIK | 1230 |  |  | 
9 | antibody 295 (antibody, V domains shown) VH: QVQLQESGPGLVKPSQTLSLTCTVSGGSISSSDYYWSWIRQPPGKGLEWIGYIYYSGSTYYNPSLKSRVTISVDTSKNQFSLKLSSVTAADTAVYYCARVVGYCSSTSCYVDYWGQGTLVTVSS VL: EIVLTQSPATLSLSPGERVTLSCRASQSVSSYLAWYQQKPGQAPRLLIYDASNRATGIPARFSGSGSGTDFTLTISSLEPEDFAVYYCQQRSNWPPGLTFGGGTKVEIK | 599 |  |  | 
10 | mAb 1495 (antibody, V domains shown) VH: QVQLVESGGGVVQPGRSLRLSCTASGFTFSSYAMHWVRQAPGKGLEWVAVISYDGNNKYYGDSVKGRFTISRDNSKNTLYLQMNSLRAEDTAVYYCAKGADTPHYSGYHFLSVGYYFYGMDVWGQGTTVTVSS VL: DIQMTQSPSSLSASVGDRVTITCRASQSISYYLNWYQQKPGKAPQLLIYAASSLQSGVPSRFSGSRSGTDFTLTISSLQPEDFATYYCQQSYSTPFTFGPGTKVDIKR |  | 0.93 | 1.08 | 1.05
11 | mAb 1585 (antibody, V domains shown) VH: QVQLVESGGGVVQPGRSLRLSCAASGFTFSRFTLHWVRQAPGKGLEWVAVISYDGSNKYYADSVKGRFTISRDNSKSTLYLQMNSLRAEDTGVYYCARDPSTVTGYFDYWGQGTLVTVSS VL: SYVLTQPPSVSVAPGKTAKISCGGDSIGSKSVHWYQQKPGQAPVLVIYYDNDRPSGIPERFSGSNSGNTATLTISRVEAGDEADYYCQVWDIGVVFGGGTKLTVLG |  | 0.94 | 25.8 | 0.88
12 | mAb 1404 (antibody, V domains shown) VH: QITLKESGPTLVKPTQTLTLTCTFSGFSLSISGVGVGWLRQPPGKALEWLALIYWDDDKRYSPSLKSRLTISKDTSKNQVVLKMTNIDPVDTATYYCAHHSISTIFDHWGQGTLVTVSS VL: QSALTQPASVSGSPGQSITISCTATSSDVGDYNYVSWYQQHPGKAPKLMIFEVSDRPSGISNRFSGSKSGNTASLTISGLQAEDEADYYCSSYTTSSAVFGGGTKLTVLG |  | 0.91 | 0.97 | 0.94
